This experiment deals with T1, LGR7 (relaxin 2 receptor), recombinant, stably expressed in HEK293T cells with a CRE-Luc reporter (UniProt Q9HBX9 1-757, limits assumed).
T1 sequence (looked up): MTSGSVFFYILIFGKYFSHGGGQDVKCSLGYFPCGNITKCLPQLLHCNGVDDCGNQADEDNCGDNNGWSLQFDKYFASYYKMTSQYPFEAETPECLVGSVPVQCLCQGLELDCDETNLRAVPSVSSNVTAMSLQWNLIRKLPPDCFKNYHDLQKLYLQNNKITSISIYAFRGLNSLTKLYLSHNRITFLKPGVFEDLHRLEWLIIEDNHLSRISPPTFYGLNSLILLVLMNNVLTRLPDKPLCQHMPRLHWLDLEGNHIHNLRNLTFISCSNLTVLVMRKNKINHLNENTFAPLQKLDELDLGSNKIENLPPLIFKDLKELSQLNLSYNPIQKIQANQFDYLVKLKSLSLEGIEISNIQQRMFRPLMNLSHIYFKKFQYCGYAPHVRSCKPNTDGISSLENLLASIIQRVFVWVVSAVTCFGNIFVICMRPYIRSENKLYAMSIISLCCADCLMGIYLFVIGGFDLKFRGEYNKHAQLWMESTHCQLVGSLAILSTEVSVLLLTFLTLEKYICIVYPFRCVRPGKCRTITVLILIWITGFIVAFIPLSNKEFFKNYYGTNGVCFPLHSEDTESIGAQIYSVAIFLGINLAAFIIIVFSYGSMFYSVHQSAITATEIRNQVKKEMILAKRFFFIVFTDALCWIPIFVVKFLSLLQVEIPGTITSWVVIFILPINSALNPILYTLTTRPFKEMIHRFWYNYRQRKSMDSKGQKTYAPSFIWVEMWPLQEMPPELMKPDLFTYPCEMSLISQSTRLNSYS
Put plainly: cell-based or functional assay.

Primed or numbered codes have the meaning given here. No end group written: not given here. FA2″ = lipid moiety from Br-FA2: acetamide, two PEG2-propionic acid units, Lys and octadecanedioic acid; FA183 = acetamide-PEG5-Lys-octadecanedioic acid; ALK = (PEG)5-bromo-alkyne, S-alkylating Cys; FA182 = acetamide-PEG5-Lys-myristic acid; FA186 = acetamide-PEG5-Lys-stearic acid; FA155 = not defined here; FA2 = not defined here

B1: Relaxin-wt (ligand)
chain 1: DSWMEEVIKLCGRELVRAQIAICGMSTWS
chain 2: QLYSALANKCCHVGCTKRSLARFC
modifications: ends and bridges not checked; cysteine pairing not given here
As for B1, the “Activity, fold drop compared to relaxin” value was 1 fold and the “LGR7 EC50 (pM), CRE-Luc reporter in HEK293T cells expressing LGR7” value (from here on “LGR7 EC50 (pM), CRE-Luc reporter”) is about 40 pM.

B2: Relaxin-B:D1A-A:Q1:V13C-FA2 (ligand)
chain 1: ASWMEEVIKLCGRELVRAQIAICGMSTWS
chain 2: QLYSALANKCCHC(FA2)GCTKRSLARFC
modifications: ends and bridges not checked
B2: the “Activity, fold drop compared to relaxin” value is 15 fold and the “LGR7 EC50 (pM), CRE-Luc reporter” value amounted to 250 pM.

B3: Relaxin-B:D1A-A:Q1-L2C-FA186 (ligand)
chain 1: ASWMEEVIKLCGRELVRAQIAICGMSTWS
chain 2: QC(FA186)YSALANKCCHVGCTKRSLARFC
modifications: ends and bridges not checked
B3: the “Activity, fold drop compared to relaxin” value stood at 10 fold and the “LGR7 EC50 (pM), CRE-Luc reporter” value amounted to 235 pM.

B4: Relaxin-B:D1A-A:Q1-L2C-FA183 (ligand)
chain 1: ASWMEEVIKLCGRELVRAQIAICGMSTWS
chain 2: QC(FA183)YSALANKCCHVGCTKRSLARFC
modifications: ends and bridges not checked
Turning to B4, the “Activity, fold drop compared to relaxin” value turned out to be 8 fold and the “LGR7 EC50 (pM), CRE-Luc reporter” value was 174 pM.

B5: Relaxin-B:D1A-A:Q1-L2C-FA155 (ligand)
chain 1: ASWMEEVIKLCGRELVRAQIAICGMSTWS
chain 2: QC(FA155)YSALANKCCHVGCTKRSLARFC
modifications: ends and bridges not checked
As to B5, the “Activity, fold drop compared to relaxin” value worked out at 12 fold and the “LGR7 EC50 (pM), CRE-Luc reporter” value is 210 pM.

B6: Relaxin-B:D1A-A:Q1-L2C-ALK (ligand)
chain 1: ASWMEEVIKLCGRELVRAQIAICGMSTWS
chain 2: QC(ALK)YSALANKCCHVGCTKRSLARFC
modifications: ends and bridges not checked
On to B6, for which the “Activity, fold drop compared to relaxin” value is 1 fold and the “LGR7 EC50 (pM), CRE-Luc reporter” value was 17 to 50 pM.

B7: Relaxin-B:D1A (ligand)
chain 1: ASWMEEVIKLCGRELVRAQIAICGMSTWS
chain 2: QLYSALANKCCHVGCTKRSLARFC
modifications: ends and bridges not checked; cysteine pairing not given here
B7: the “Activity, fold drop compared to relaxin” value was determined as 1 fold and the “LGR7 EC50 (pM), CRE-Luc reporter” value came to 45 pM.

B8: Relaxin-B:D1A-A:Q1-L2C-FA182 (ligand)
chain 1: ASWMEEVIKLCGRELVRAQIAICGMSTWS
chain 2: QC(FA182)YSALANKCCHVGCTKRSLARFC
modifications: ends and bridges not checked
On to B8, for which the “Activity, fold drop compared to relaxin” value stood at 2 fold and the “LGR7 EC50 (pM), CRE-Luc reporter” value stood at 51 pM.

B9: Relaxin-B:D1A-A:Q1-L2C-FA2 (ligand)
chain 1: ASWMEEVIKLCGRELVRAQIAICGMSTWS
chain 2: QC(FA2″)YSALANKCCHVGCTKRSLARFC
modifications: ends and bridges not checked
Regarding B9, the “Activity, fold drop compared to relaxin” value stood at 12 fold and the “LGR7 EC50 (pM), CRE-Luc reporter” value came out at 210 pM.

B10: Relaxin-B:D1A-A:pQ1-L2C-FA2 (ligand)
chain 1: ASWMEEVIKLCGRELVRAQIAICGMSTWS
chain 2: XCYSALANKCCHVGCTKRSLARFC
modifications: pyroglutamate (pQ) at position 1; Cys 2 S-alkylated with FA2 (from Br-FA2, Example 6)
For the molecule B10, the “Activity, fold drop compared to relaxin” value stood at 12 fold and the “LGR7 EC50 (pM), CRE-Luc reporter” value came to 350 pM.

(Values after US20180207276A1, “MODIFIED THERAPEUTIC AGENTS AND COMPOSITIONS THEREOF” (THE CALIFORNIA INSTITUTE FOR BIOMEDICAL RESEARCH, priority 2015, published 2018).)
